These results are taken from patent US20210221885A1 (NANJING LEADS BIOLABS, published 2021).

The target in test [1] is T1, Eu3+ cryptate labeled TIM3 (Cisbio kit, cat# 63ADK000CTLPEB) (human, UniProt Q8TDQ0 22-202, limits assumed, Eu3+ cryptate label).
T1 construct: Kit reagent; construct not described; also called Tim3-EuK protein; Tim3-EuK
T1 sequence (looked up): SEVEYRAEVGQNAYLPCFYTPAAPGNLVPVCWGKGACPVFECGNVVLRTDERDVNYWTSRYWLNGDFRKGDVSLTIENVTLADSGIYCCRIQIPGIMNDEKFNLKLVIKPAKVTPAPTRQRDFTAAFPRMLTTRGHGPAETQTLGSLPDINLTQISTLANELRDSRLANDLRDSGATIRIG
As to the kind of experiment: HTRF blocking assay (Cisbio kit), antibody added to a mixture of Tim3-EuK and Tag-Gal9; blocked ligand galectin-9; the unit is that of the concentration axis. As to the method: The resultant mixture was incubated for 1 h at room temperature and then the fluorescence emission was read.

The target in test [2] is T2, Human TIM-3 protein (Acrobiosystems, Cat#TM3-H5229) (human, UniProt Q8TDQ0 22-200).
T2 construct: Bought protein; also called recombinant human TIM-3; TIM-3 recombinant protein
T2 sequence (looked up): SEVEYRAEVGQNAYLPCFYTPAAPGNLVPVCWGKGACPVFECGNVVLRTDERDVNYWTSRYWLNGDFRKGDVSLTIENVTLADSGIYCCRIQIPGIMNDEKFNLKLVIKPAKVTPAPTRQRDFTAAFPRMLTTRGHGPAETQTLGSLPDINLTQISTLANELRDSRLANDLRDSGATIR
Kind of test: ELISA, human TIM-3 coated at 1 ug/mL, detection with peroxidase-labeled anti-human IgG, OD450-620; the unit is that of the concentration axis. The method, then: (§1) An ELISA assay was used for determination of the relative binding activity of antibodies to recombinant human TIM-3.
(§2) Human TIM-3 protein (Acrobiosystems, Cat#TM3-H5229) in carbonate buffer (pH 9.6, 1.59 g sodium carbonate and 2.93 g sodium bicarbonate dissolved in 1L water) was immobilized onto 96-well plates at 1μg/mL by incubation overnight at 4° C. The plates were then blocked with 1% BSA in PBS for one hour at 37° C. After blocking, the plates were washed three times with PBST (PBS containing 0.05% Tween20). […] After binding, the plates were washed three times with PBST, incubated for one hour at 37° C. with peroxidase-labeled donkey anti-human IgG (Jackson Immuno Research) diluted 1/15,000 in binding buffer, washed again, developed with TMB and stopped with 1M H₂SO₄.
(§3) The absorbance at 450 nm-620 nm was determined.

Test [3] deals with T2, Human TIM-3 protein (Acrobiosystems, …). Kind of test: ELISA, human TIM-3 coated at 1 ug/mL, detection with peroxidase-labeled anti-human IgG, OD450-620. The method, then: as §1, §2, §3
Test [4] concerns the target T3, human TIM-3 stably expressed on CHO-K1 cells (human, UniProt Q8TDQ0 22-301).
T3 construct: whole, on cells; also called CHO-K1-TIM-3; cell surface TIM-3
T3 sequence (looked up): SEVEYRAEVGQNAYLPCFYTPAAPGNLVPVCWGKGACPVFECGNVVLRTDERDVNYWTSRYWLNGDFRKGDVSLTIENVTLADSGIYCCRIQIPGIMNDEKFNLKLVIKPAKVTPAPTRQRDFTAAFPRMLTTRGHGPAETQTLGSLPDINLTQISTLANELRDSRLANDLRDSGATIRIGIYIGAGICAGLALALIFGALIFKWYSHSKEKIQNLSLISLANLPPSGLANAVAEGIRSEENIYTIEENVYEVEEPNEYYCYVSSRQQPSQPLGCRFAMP
As to the kind of experiment: flow cytometry on CHO-K1-TIM-3 cells, detection with PE anti-human IgG Fc, MFI; the unit is that of the concentration axis. The method, then:
Anti-TIM-3 antibodies were tested for their binding ability to human TIM-3 stably expressed on CHO-K1 cells. A Chinese hamster ovary epithelial CHO-K1 cell line (ATCC, cat# CCL-61) was maintained in F-12K medium containing 10% FBS in a humidified incubator with 5% CO₂ at 37° C. Polyethylenimine (MW25K, 23966-2, Polyscience) was diluted to 1 mg/mL, and added to and incubated with pcDNA3.1 vector containing TIM-3 cDNA (NP_116171.3) at 37° C. for 10 mins. The mixture was added to and incubated with cell culture for 3hrs for DNA transfection.
The anti-TIM-3 antibodies were serially diluted in PBS buffer with 0.5% BSA. The antibodies were added to and incubated with CHO-K1-TIM-3 cells at 4° C. for 30min. The cells were pelleted (3 minutes, 600×g), washed once using PBS buffer with 0.5% BSA and re-pelleted. Then, the cells were incubated with a PE conjugated AffiniPure Goat Anti-human IgG, Fcγ Fragment Specific (Jackson ImmunoResearch Cat#109-116-098) diluted at 1:100 at 4 ° C. for 30mins. Cells were washed twice as described above, resuspended in PBS buffer. The cells were then sent to the […] flow cytometer (BD Bioscience) for binding activity analysis. The EC₅₀ values were calculated.

In test [5] the target is T2, Human TIM-3 protein (Acrobiosystems, …). As to the kind of experiment: SPR, Biacore T200; antibody captured on anti-human IgG (Fc), human TIM-3 injected at 1.56-50 nM; 1:1 Langmuir fit. As to the method:
The kinetic binding activity of anti-TIM-3 antibodies to human TIM-3 (Acrobiosystems, Cat#TM3-H5229) was measured by surface plasmon resonance using a Biacore® T200 system (Biacore, GE Healthcare).
Approximately 6800 RU of Anti-Human IgG (Fc) antibody (GE Catalog # BR-1008-39) was immobilized via amine coupling chemistry onto a CMS sensor chip. […] HBS-EP+ buffer was used as the running buffer. Varying concentrations of human TIM-3 protein, ranging from 1.56 nM to 50 nM, were injected over the antibody surfaces. Following each injection cycle, the CMS chip surface was regenerated using injection of 3M magnesium chloride solution. Background subtraction binding sensorgrams were used for analyzing the rate of association Ka and dissociation Kd, and the equilibrium dissociation constant KD. The resulting data sets were fitted with a 1:1 Langmuir Binding Model using the Biacore T200 evaluation software.

Test [6] deals with T4, Human TIM-1 (Sino biological, Cat#11051-HNCH) (human, UniProt Q96D42 21-295, limits assumed).
T4 construct: Bought protein; construct not described
T4 sequence (looked up): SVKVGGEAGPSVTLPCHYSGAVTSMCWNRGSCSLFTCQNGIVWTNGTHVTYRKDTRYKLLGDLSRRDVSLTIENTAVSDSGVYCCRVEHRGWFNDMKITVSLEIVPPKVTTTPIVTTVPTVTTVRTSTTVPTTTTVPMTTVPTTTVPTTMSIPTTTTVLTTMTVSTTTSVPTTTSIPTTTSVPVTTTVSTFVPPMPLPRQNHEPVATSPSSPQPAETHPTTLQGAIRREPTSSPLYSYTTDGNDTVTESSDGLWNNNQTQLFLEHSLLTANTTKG
Kind of test: ELISA, human TIM-1 coated, serially diluted antibody. As to the method:
(§4) After blocking, the plates were washed three times with PBST (PBS containing 0.05% Tween20). […] After binding, the plates were washed three times with PBST, incubated for one hour at 37° C. with peroxidase-labeled donkey anti-human IgG (Jackson Immuno Research) diluted 1/15,000 in binding buffer, washed again, developed with TMB and stopped with 1M H₂SO₄.
as §3

Test [7] addresses T5, Human TIM-4 (Sino biological, Cat#12161-H08H) (human, UniProt Q96H15 25-315).
T5 construct: Bought protein; construct not described
T5 sequence (looked up): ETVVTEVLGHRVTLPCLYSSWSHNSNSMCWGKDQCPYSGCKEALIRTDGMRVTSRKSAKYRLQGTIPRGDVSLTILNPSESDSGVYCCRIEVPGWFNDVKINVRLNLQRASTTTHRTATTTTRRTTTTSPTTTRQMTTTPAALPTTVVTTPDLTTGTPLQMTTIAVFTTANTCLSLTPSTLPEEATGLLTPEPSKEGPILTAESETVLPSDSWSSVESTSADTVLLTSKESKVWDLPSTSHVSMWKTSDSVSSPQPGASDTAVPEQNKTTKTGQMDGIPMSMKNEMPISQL
As to the kind of experiment: ELISA, human TIM-4 coated, serially diluted antibody. As to the method: as §4, §3

Test [8] deals with C1q (Calbiochem, Cat#204876) (UniProt P02745 23-245; P02746 28-253; P02747 29-245). Kind of test: ELISA, antibody coated, C1q added, anti-C1q-HRP detection.
Chain of C1q (Calbiochem, Cat#204876) (P02745 23-245, chain 1 of 3): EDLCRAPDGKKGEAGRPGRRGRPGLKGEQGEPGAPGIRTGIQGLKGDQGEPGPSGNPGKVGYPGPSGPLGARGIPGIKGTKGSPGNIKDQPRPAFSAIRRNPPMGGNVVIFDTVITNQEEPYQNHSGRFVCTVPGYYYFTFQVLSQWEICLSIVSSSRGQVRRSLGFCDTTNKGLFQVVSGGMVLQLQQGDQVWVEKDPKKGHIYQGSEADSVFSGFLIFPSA
Chain of C1q (Calbiochem, Cat#204876) (P02746 28-253, chain 2 of 3): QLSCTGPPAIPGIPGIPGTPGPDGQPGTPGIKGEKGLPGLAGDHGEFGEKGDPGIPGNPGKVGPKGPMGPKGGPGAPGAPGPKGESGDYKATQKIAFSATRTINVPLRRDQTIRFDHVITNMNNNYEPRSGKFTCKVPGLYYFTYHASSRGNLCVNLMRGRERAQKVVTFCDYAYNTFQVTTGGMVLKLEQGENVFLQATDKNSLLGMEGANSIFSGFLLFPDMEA
Chain of C1q (Calbiochem, Cat#204876) (P02747 29-245, chain 3 of 3): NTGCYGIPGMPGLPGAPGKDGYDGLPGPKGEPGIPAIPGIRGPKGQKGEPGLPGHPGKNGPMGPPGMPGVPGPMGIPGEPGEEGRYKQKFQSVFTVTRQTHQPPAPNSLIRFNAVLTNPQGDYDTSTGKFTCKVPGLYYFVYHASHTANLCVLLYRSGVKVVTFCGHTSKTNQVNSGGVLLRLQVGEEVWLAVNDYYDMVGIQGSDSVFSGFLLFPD

B1: anti-TIM-3 antibody TIM3-11 (antibody, human IgG4 S228P, lambda, V domains shown)
VH: QVQLQQSGPGLVKPSQTLSLTCAISGDSVSSNSAAWNWIRQSPSRGLEWLGRTYYRSKWYNDYAVSVKSRITINPDTSKNQFSLQLNSVTPEDTAVYYCARDQAAGFPQPYIYGMDVWGKGTMVTVSS
VL: LPVLTQPPSVSKGLRQTATLTCTGNSNNVGNQGAAWLQQHQGHPPKLLTYRTNNRPSGISERFSASRSGNTASLTITGLQPEDEADYYCSGWDSSLNEGVFGGGTKLTVLG
notes: Full-length IgG
Consider B1, for which the half-maximal inhibitory concentration (IC50) in test [1] came out at 3.56 nM. In test [2], this molecule displayed an EC50 of 5.08 nM.

B2: anti-TIM-3 antibody TIM3-4G7 (antibody, human IgG4 S228P, kappa, V domains shown)
VH: EVQLVETGGGLVQPGGSLRLSCAASGFTFSSYAMSWVRQAPGKGLEWVSGISGSGGSTYYADSVKGRFTTSRDNSENTLYLQMNSLRAEDTAVYYCAGSYYDDAFDIWGQGTLVTVSS
VL: ETTLTQSPATLSLSPGDTATLSCRASQSVTKDLVAWYQQRPGQAPRLLLYGASSRATGIPDRFSGSGSGTDFTLTISRLEPEDFAVYYCQQYGRSPLTFGGGTKVEIKR
notes: Full-length IgG
On to B2, for which the IC50 in test [1] was 4.73 nM. In test [3], the concentration for a half-maximal effect (EC50 (read off the curve)) is 2 to 3 nM.

B3: ABTIM3 analog (antibody, human IgG4 S228P, kappa, V domains shown)
VH: QVQLVQSGAEVKKPGASVKVSCKASGYTFTSYNMHWVRQAPGQGLEWIGDIYPGSGDTSYNQKFKGRATMTADKSTSTVYMELSSLRSEDTAVYYCARVGGAFPMDYWGQGTLVTVSS
VL: DIVLTQSPDSLAVSLGERATINCRASESVEYYGTSLMQWYQQKPGQPPKLLIYAASNVESGVPDRFSGSGSGTDFTLTISSLQAEDVAVYYCQQSRKDPSTFGGGTKVEIKR
On to B3, for which the EC50 in test [4] worked out at 0.543 nM. In addition, the IC50 in test [1] was 5.87 nM. In test [3], the concentration for a half-maximal effect (EC50 (read off the curve)) was about 0.08 nM.

B4: anti-TIM-3 antibody TIM3-6.11 (antibody, human IgG1, lambda, L234A L235A, V domains shown)
VH: QVQLVQSGAEVKKPGSSVKVSCKASGGTFSSYTIYWVRQAPGQGLEWMGSIIPILGTANYAQKFQGRVTITADESTSTAYMELSSLRSEDTAVYYCASASHTIWGQGTLVTVSS
VL: QAVVTQEPSLTVSPGGTVTLTCASSTGAVTSGYTPNWFQQRPGQAPRALIYTTSNRHSWTPARFSGSLLGGKAALTLSGVQPEDEADYYCLLYYGGAWVFGGGTKLTVLG
Consider B4, for which, in test [5], the Kd was 1.5 nM, the dissociation rate constant (koff) is 0.000344 s⁻¹ and the association rate constant (kon) is 230000 M⁻¹ s⁻¹.

B5: anti-TIM-3 antibody TIM3-6 (antibody, human IgG4 S228P, lambda, V domains shown)
VH: QVQLVQSGAEVKKPGSSVKVSCKASGGTFSSYTISWVRQAPGQGLEWMGRIIPILGTANYAQKFQGRVTITADESTSTAYMELSSLRSEDTAVYYCASASHTIWGKGTLVTVSS
VL: QAVVTQEPSLTVSPGGTVTLTCASSTGAVTSGYSPNWFQQRPGQAPRALIYTTSNRHSWTPARFSGSLLGGKAALTLSGVQPEDEADYYCLLYYGGAWVFGGGTKLTVLG
notes: Full-length IgG expressed in CHO-S cells
For B5, in test [1], the IC50 came out at 1.88 nM. For the same molecule, the binding result in test [6] and in test [7] was “no binding” each time. The concentration giving a half-maximal response (EC50) in test [2] came out at 9.24 nM.

B6: anti-TIM-3 antibody TIM3-6.10 (antibody, human IgG1, lambda, L234A L235A, V domains shown)
VH: QVQLVQSGAEVKKPGSSVKVSCKASGGTFSSYTIYWVRQAPGQGLEWMGSIIPILGTANYAQKFQGRVTITADESTSTAYMELSSLRSEDTAVYYCASASHTIWGQGTLVTVSS
VL: QAVVTQEPSLTVSPGGTVTLTCASSTGAVTSGNTPNWFQQRPGQAPRALIYTTSNRHSWTPARFSGSLLGGKAALTLSGVQPEDEADYYCLLYYGGAWVFGGGTKLTVLG
Take B6: in test [5], binding was put at a Kd of 2.05 nM, the koff amounted to 0.000415 s⁻¹ and the kon came out at 202000 M⁻¹ s⁻¹.

B7: anti-TIM-3 antibody TIM3-6.12 (antibody, human IgG1, lambda, L234A L235A)
heavy: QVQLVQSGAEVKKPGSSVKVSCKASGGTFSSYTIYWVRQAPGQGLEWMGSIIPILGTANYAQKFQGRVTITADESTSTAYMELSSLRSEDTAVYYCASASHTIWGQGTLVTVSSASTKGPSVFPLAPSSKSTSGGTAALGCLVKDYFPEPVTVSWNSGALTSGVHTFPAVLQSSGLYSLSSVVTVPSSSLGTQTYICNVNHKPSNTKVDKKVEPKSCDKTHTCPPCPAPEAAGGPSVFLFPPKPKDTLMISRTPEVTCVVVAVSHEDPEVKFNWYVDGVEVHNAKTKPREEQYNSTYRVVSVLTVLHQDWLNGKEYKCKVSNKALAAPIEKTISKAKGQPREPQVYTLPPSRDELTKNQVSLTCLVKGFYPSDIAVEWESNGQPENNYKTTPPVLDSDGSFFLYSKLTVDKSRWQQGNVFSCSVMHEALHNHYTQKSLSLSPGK
light: QAVVTQEPSLTVSPGGTVTLTCASSTGAVTSGYTPNWFQQRPGQAPRALIYTTNNRHSWTPARFSGSLLGGKAALTLSGVQPEDEADYYCLLYYGGAWVFGGGTKLTVLGQPKAAPSVTLFPPSSEELQANKATLVCLISDFYPGAVTVAWKADSSPVKAGVETTTPSKQSNNKYAASSYLSLTPEQWKSHRSYSCQVTHEGSTVEKTVAPTEC
notes: In the internalization assay the antibody carried pHAb amine reactive dye
Molecule B7 showed a concentration for a half-maximal effect (EC50) in test [4] of 0.746 nM. In test [5], this molecule came in with a dissociation constant Kd of 1.66 nM, an off-rate constant (koff) of 0.00037 s⁻¹ and a kon of 223000 M⁻¹ s⁻¹. For the same molecule, in test [2], a half-maximal effect (EC50) was put at 0.0915 nM. Also, the binding result in test [8] is reported as “no binding”.
